Results published in publication PMC6614842 (Nucleic Acids Research, 2019).
Positions count from the first letter of the chain named. Where two headings read alike, the source gives them in different places. One block for each molecule: values may come before it.

How the values were obtained:
[1] = molecular target: Mature full-length TFAM (human mitochondrial transcription factor A, residues 43-246) (human) (UniProt Q00059); assay: AUC
[2] = molecular target: Mature full-length TFAM (human mitochondrial transcription factor A, residues 43-246) (human) (UniProt Q00059); assay: SEC-MALLS
[3] = molecular target: Mature full-length TFAM (human mitochondrial transcription factor A, residues 43-246) (human) (UniProt Q00059); assay: ITC
[4] = molecular target: Mature full-length TFAM (human mitochondrial transcription factor A, residues 43-246) (human) (UniProt Q00059); assay: SEC-MALLS; remark: listed apart in the source
[5] = molecular target: Mature full-length TFAM (human mitochondrial transcription factor A, residues 43-246) (human) (UniProt Q00059); assay: AUC; remark: listed apart in the source
[6] = molecular target: T1, TFAM-C49A, A488 at C-terminal Cys246 (Homo sapiens, UniProt Q00059 43-246, C49A); assay: FRET
T1 sequence: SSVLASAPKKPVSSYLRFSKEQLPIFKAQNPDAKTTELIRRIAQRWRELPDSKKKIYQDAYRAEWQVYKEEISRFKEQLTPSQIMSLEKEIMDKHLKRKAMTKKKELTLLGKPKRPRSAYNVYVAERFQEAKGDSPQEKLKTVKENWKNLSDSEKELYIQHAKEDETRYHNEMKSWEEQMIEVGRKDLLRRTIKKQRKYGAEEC

[7] = molecular target: T1, TFAM-C49A, A488 at C-terminal Cys246; assay: FRET; remark: listed apart in the source
[8] = molecular target: T2, TFAM WT (mature) (Homo sapiens, UniProt Q00059 43-246); assay: EMSA
T2 sequence: T1 sequence with A7C

[9] = molecular target: T1, TFAM-C49A, A488 at C-terminal Cys246; assay: FRET; remark: listed apart in the source
[10] = molecular target: T2, TFAM WT (mature); assay: X-ray crystallography
[11] = molecular target: T1, TFAM-C49A, A488 at C-terminal Cys246; assay: FRET; remark: listed apart in the source
[12] = molecular target: the molecule itself; assay: native gel or EMSA

- stoichiometry N [1]: 2
- stoichiometry N [2]: 2
- stoichiometry N [3]: 2
- stoichiometry N [4]: 2
- stoichiometry N [5]: 2
Molecule: Mature full-length TFAM (human mitochondrial transcription factor A, residues 43-246) (from UniProt Q00059 43-246) (natural protein)

B1: Site-Y5* 28 (dsDNA)
DNA 1: TAGAGGCTGTGCAGACATTCAATTGTTA
DNA 2: TAACAATTGAATGTCTGCACAGCCTCTA
- binding result [6]: binds

B2: Site-X3* 28 (dsDNA)
DNA 1: TATCATAACAAAAAATTTCCACCAAACA
DNA 2: TGTTTGGTGGAAATTTTTTGTTATGATA
- binding result [7]: binds

B3: Site-X 22 (dsDNA)
DNA 1: TAACAAAAAATTTCCACCAAAC
DNA 2: TTTGGTGGAAATTTTTTGTTAG
- Kd [8]: 13.6 ± 2.89 nM

B4: Site-X5* 28 (dsDNA)
DNA 1: TATCATAACAAAAAATTTCCACCAAACA
DNA 2: TGTTTGGTGGAAATTTTTTGTTATGATA
- binding result [9]: binds

B5: Site-YBr 22 (dsDNA)
DNA 1: TAACAATTGAATGTCTGCACAG
DNA 2: CTGTGCAGACATTCAATTGTTA
modifications: brominated at thymine positions (positions not given)
- binding result [10]: binds

B6: Site-Y3* 28 (dsDNA)
DNA 1: TAGAGGCTGTGCAGACATTCAATTGTTA
DNA 2: TAACAATTGAATGTCTGCACAGCCTCTA
- binding result [11]: binds

B7: TFAM C-terminal tail deletion mutant (TFAM-CTΔ26) (domain or fragment, human, UniProt Q00059 43-220, looked up)
chain: SSVLASCPKKPVSSYLRFSKEQLPIFKAQNPDAKTTELIRRIAQRWRELPDSKKKIYQDAYRAEWQVYKEEISRFKEQLTPSQIMSLEKEIMDKHLKRKAMTKKKELTLLGKPKRPRSAYNVYVAERFQEAKGDSPQEKLKTVKENWKNLSDSEKELYIQHAKEDETRYHNEMKSWEE
- binding result [12]: binds
